From paper PMC3156243, “Properties and Crystal Structure of Methylenetetrahydrofolate Reductase from Thermus thermophilus HB8” (PLoS ONE, 2011)

Molecular target: the molecule itself
Assay: SEC-MALS; as-purified MTHFR; HPLC on TSK-gel G3000SWxl with multi-angle light scattering and refractive index detectors; 50 mM Tris-HCl pH 6.8, 0.2 M NaCl; 0.5 ml/min; 0.1 mg protein/run

B1: Methylenetetrahydrofolate reductase (MTHFR) from Thermus thermophilus HB8, C-terminally hexa-His-tagged wildtype (enzyme, UniProt Q5SLG6 1-296, looked up)
chain: MKIRDLLKARRGPLFSFEFFPPKDPEGEEALFRTLEELKAFRPAFVSITYGAMGSTRERSVAWAQRIQSLGLNPLAHLTVAGQSRKEVAEVLHRFVESGVENLLALRGDPPRGERVFRPHPEGFRYAAELVALIRERYGDRVSVGGAAYPEGHPESESLEADLRHFKAKVEAGLDFAITQLFFNNAHYFGFLERARRAGIGIPILPGIMPVTSYRQLRRFTEVCGASIPGPLLAKLERHQDDPKAVLEIGVEHAVRQVAELLEAGVEGVHFYTLNKSPATRMVLERLGLRPASGQP
notes: Methylenetetrahydrofolate reductase (MetF homologue) of Thermus thermophilus HB8, clone TTHA0327, wildtype gene amplified by PCR into pET23; the original stop codon was mutated to Ala before the C-terminal hexa-His tag; One polypeptide in two cofactor states: as purified about one FAD per dimer (apo- plus holo-subunit), after FAD treatment one FAD per subunit; The stop codon is replaced by Ala, …
In the case of B1, the “stoichiometry N” value is reported as 2.
